Legend:
[1] = target: MCPyV common T antigen (CT; shared N-terminal domain of LT and ST) peptide on HLA-A*03:01 (human); test: IFNγ ELISA
[2] = target: MCPyV large T antigen (LT) peptide on HLA-A*03:01 (human); test: IFNγ ELISA; settings: chains alpha TRAV3*00 CDR3:beta TRBV4-3*00 CDR3
[3] = chains alpha TRAV12-1*00 CDR3:beta TRBV19*00 CDR3

| Binder | EC50 of peptide [1, 3] [µg/mL] | further results |
| --- | --- | --- |
| TCR clonotype 1 specific for MCPyV CT AA 32–40 (subject 1233) (peptide) chain 1: CVVNGNNNDMRF chain 2: CASSQGFGANVLTF | 0.0076 | – |
| TCR clonotype 2 specific for MCPyV CT AA 32–40 (subject 1233) (peptide) chain 1: CVVNNNNNDMRF chain 2: CASVSGQGVSPLHF | 0.0236 | – |
| TCR clonotype 1 specific for MCPyV LT AA 95–103 (subject 1233) (peptide) chain 1: CAVRALGNAGNMLTF chain 2: CASSPNPQGANMDTQYF | – | EC50 of peptide [2]: 0.0019 µg/mL |
| TCR clonotype 3 specific for MCPyV CT AA 32–40 (subject 1233) (peptide) chain 1: CAGARNDYKLSF chain 2: CATSRDGAGLVNQPQHF | – | EC50 of peptide ([1]; chains alpha TRAV25*00 CDR3:beta TRBV15*00 CDR3): 0.0234 µg/mL |
